# Assay results from patent US20210070872A1 (AGENUS, published 2021).
# Substitutions are numbered along the chain they refer to. In names and notes the source's numbering stands.
# B1: m6C8 (antibody, human IgG1, V domains shown)
# VH: QVTLKESGPGILKPSQTLSLTCSFSGFSLSTSGMGVGWIRQPSGKGLEWLAHIWWDDDKYYNPSLKSQLTISKDTSRNQVFLKITSVDTADAATYYCARTRRYFPFAYWGQGTLVTVSS
# VL: DIVMTQSQKFMSTSVGDRVSVTCKASQNVGTNVAWYQQKPGQSPKALIYSASYRYSGVPDRFTGSGSGTDFTLTINNVHSEDLAEYFCQQYNTDPLTFGAGTKLEIKR
# notes: also called murine antibody 6C8
# B2: Hum231#1 (antibody, V domains shown)
# VH: QVQLVQSGAEVKKPGASVKVSCKGSGYTFTDYAMYWVRQAPGQGLEWIGVIRTYSGDVTYNQKFKDRATMTVDKSISTAYMELSRLRSDDTAVYYCAKSGTVRGFAYWGQGTLVTVSS
# VL: DIVMTQSPPTLSLSPGERVTLSCKSSQSLLNSGNQKNYLTWYQQKPGQAPRLLIYWASTRESGIPARFSGSGSGTDFTLTISSLQPEDFAVYHCQNDYSYPYTFGQGTKLEIK
# notes: Variable regions cloned with IGHG1 (also IGHG4 and Fab vectors exist) and IGKC constant regions; format in each assay not always stated; also called humanized variant Hum231#1 (IGHV1-2*02 and IGK3-7*02)
# B3: germline variant antibody 20 (H1916B12 / K1916B12) (antibody, V domains shown)
# VH: B2 VH with A9T, G24A, Y54F, V58L, T59S, K65R, D66G, A68V, K74T
# VL: DIVMTQSPDSLAVSLGERATINCKSSQSLLNSGNQKNYLTWYQQKPGQPPKMLLYWASTRESGVPDRFTGSGSGTDFTLTISSVQAEDVAVYHCQNDYSYPYTFGQGTKLEIK
# notes: IGHG1/IGKC expression vectors; measured from CHO culture supernatant; also called Antibody ID 20
# B4: mAb 231-1039-45 (murine) (antibody, mouse IgG1, V domains shown)
# VH: QVQLLQSGTELVRPGVSVKISCKGSGYTFTDYAMYWVKQSHAKSLEWIGVIRTYSGDVTYNQKFKDKATMTVDKSSSIAYMELARLSSEDSAIYYCAKSGTVRGFAYWGQGTLVTVSS
# VL: DIVMTQSPSSLTVTAGEKVIMSCKSSQSLLNSGNQKNYLTWYQQKPGQPPKLLIYWASTRESGVPDRFTGSGSGTDFTLTISSVQAEDLAVYHCQNDYSYPYTFGGGTKLEIK
# notes: Mouse IgG1 from hybridoma
# B5: mAb 231-1042-7 (murine) (antibody, mouse IgG1, V domains shown)
# VH: B4 VH
# VL: B4 VL
# notes: Mouse IgG1 from hybridoma
# B6: mAb 231-1333-21 (murine) (antibody, mouse IgG1, V domains shown)
# VH: B4 VH
# VL: B4 VL
# notes: Mouse IgG1 from hybridoma
# B7: chimeric parental 231-32-15 antibody (antibody, human IgG1, V domains shown)
# VH: B4 VH
# VL: B4 VL
# notes: Murine variable regions on human IgG1 (CH1-2-3) and human kappa constant regions; T109S (Kabat) in the light chain constant domain
# B8: mAb 231-32-15 (murine) (antibody, mouse IgG1, V domains shown)
# VH: B4 VH
# VL: B4 VL
# notes: Mouse IgG1 from hybridoma; also called antibody 32-15
# B9: germline variant antibody 21 (H1916C03 / K1916C03) (antibody, V domains shown)
# VH: QVQLVQSGTEVKKPGASVKVSCKGSGYTFTGYVMHWVRQAPGQGMEWIGVIRTFSGDVSYNQKFRERVTMTVDTSISTAYMELSRLRSDDTAVYYCAKSGTVRGFAYWGQGTLVTVSS
# VL: B3 VL with Q43H, M52L, L54I, T69S
# notes: IGHG1/IGKC expression vectors; measured from CHO culture supernatant; also called Antibody ID 21
# Tests used:
# [1] = target: purified recombinant human GITR protein (Example 1) (human) (UniProt Q9Y5U5); test: SPR (BIAcore), huGITR immobilized on CM5, analyte 12.5-200 nM
# [2] = target: T1, human GITR D60A mutant on 1624-5 cells (human, UniProt Q9Y5U5 26-241); test: flow cytometry on 1624-5 cells, 2 µg/ml, MFI ratio to polyclonal antibody
# T1 chain: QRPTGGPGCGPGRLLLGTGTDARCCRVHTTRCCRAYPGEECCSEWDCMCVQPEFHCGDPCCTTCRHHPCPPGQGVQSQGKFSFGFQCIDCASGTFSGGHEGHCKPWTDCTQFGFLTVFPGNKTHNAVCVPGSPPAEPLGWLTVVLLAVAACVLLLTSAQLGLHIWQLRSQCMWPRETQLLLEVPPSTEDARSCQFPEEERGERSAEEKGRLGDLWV
# Description: (§1) An average MFI ratio (“AMFI ratio”) was calculated based on the individual MFI ratios for all the mutants. FIG. 34A is a table summarizing the binding of Hum231#2, three germline variants (pab1967, pab1975 and pab1979) and the reference antibody m6C8 to1624-5 cells expressing human GITR alanine mutants. An individual MFI ratio that is above 60% of the AMFI ratio is considered to indicate similar binding, after normalization, of that of the polyclonal antibody and is represented by “+” in FIG. 34A. An individual MFI ratio that is between 30% and 60% of the AMFI ratio is represented by “+/−” in FIG. 34A. An individual MFI ratio that is below 30% of the AMFI ratio is represented by “−” in FIG. 34A.
# (§2) All the mean fluorescence intensity (MFI) values were calculated as the mean of two measurements. […] The percentage of binding of an antibody to the GITR alanine mutants relative to the wild type GITR was calculated by dividing a particular MFI ratio for the GITR alanine mutants by the corresponding MFI ratio for the wild type (e.g., dividing MFI ratio_{Hum231#2, D60A} by MFI ratio_{Hum231#2, WT}). The percentage of reduction in binding was determined by calculating, e.g., 100%*(1−(MFI ratio_{Hum231#2, D60A}/MFI ratio_{Hum231#2, WT})).
# [3] = target: T2, human GITR G63A mutant on 1624-5 cells (human, UniProt Q9Y5U5 26-241); test: as above
# T2 chain: T1 chain with A35D, G38A
# Description: as §1, §2
# [4] = target: T3, GITR antigen (R&D systems, di-sulfide-linked homodimer; 689-GR) (human, UniProt Q9Y5U5 26-161); test: SPR (BIAcore T100/T200), antibody captured via anti-human Fab, GITR antigen 40/10/2.5 nM, 1:1 model
# T3 construct: Bought
# T3 sequence: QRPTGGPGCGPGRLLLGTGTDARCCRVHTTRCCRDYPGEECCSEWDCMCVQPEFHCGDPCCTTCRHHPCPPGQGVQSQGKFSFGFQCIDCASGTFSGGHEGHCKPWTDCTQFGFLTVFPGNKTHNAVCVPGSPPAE
# Description: All interactions were analyzed at 25° C. using 1× DPBS (PAA, H15-002) plus P20 (0.05%, Pierce, 28320) as running buffer. Anti-GITR antibodies (8 μg/ml in running buffer) were captured to the chip surface of a CM5 sensor chip (GE Healthcare, Series S CM5, BR-1005-30) via an immobilized anti-human Fab antibody (GE Healthcare, Fab Capture Kit, 28958325). To detect unspecific interactions of the GITR antigen, antibody capture was only performed in flow cell 2, whereas in flow cell 1 only the capturing antibody was immobilized. In addition, an unrelated antibody (anti-IL-1β; SK48E26; International Publication No. WO 95/001997) was used to assess specificity of GITR binding. After capture of the anti-GITR antibodies GITR antigen (R&D systems, di-sulfide-linked homodimer; 689-GR) was run through both flow cells in different amounts (40 nM, 10 nM and 2.5 nM) for each antibody. Also a blank curve (running buffer only) was included in each run. Association was run for 90 s and dissociation for 600 s with a flow rate of 10 μl/min. After each run a regeneration step was performed with 10 mM Glycine pH2.0 (GE Healthcare, BR-1003-55) for 60 s with 30 μl/min. Binding curves were evaluated using BIAcore® T200 evaluation software version 2.0.1 applying a Langmuir 1:1 model with global fit of Rmax.
# biotinylated GITR = target: T4, biotinylated GITR (human, UniProt Q9Y5U5 26-161, limits assumed, biotinylated (sites not given)); test: BLI (Octet), biotin-GITR on streptavidin tips, antibody supernatant
# T4 construct: also called GITR-bio; Biotin-GITR
# T4 sequence: T3 sequence
# Procedure, shortened: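 Biolayer interferometry at 30° C in PBS/0.05% Tween pH 7.4: biotinylated GITR loaded 10 min on streptavidin tips; association 5 min in antibody culture supernatant diluted 1:10, dissociation 5 min in buffer. Affinity, kon and koff fitted to a 1:1 model with local full fitting.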
# recombinant mouse GITR = target: T5, recombinant mouse GITR (mouse, UniProt O35714 20-153, limits assumed); test: Western blot, non-reducing
# T5 construct: also called Mu GITR recomb protein; immobilized mouse GITR
# T5 sequence (looked up): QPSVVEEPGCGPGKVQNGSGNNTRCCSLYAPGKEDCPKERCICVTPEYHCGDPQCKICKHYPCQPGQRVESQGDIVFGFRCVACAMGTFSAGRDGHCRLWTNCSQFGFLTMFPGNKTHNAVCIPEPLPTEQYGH
# Description: The specificity of the anti-GITR-antibodies was tested by Western blot against purified recombinant human GITR, recombinant mouse GITR, CMS5a cells transfected with human GITR, wild-type CMS5a cells, activated CD4⁺ T cells and untreated CD4⁺ T cells. The Western blot, under non-reducing conditions, is depicted in FIG. 1. The anti-GITR antibodies were reactive with purified recombinant human GITR, not reactive with recombinant mouse GITR, reactive with recombinant human GITR in CMS5a cells, and reactive with natural human GITR in activated CD4⁺ T cells.
# [5] = target: T6, purified recombinant human GITR protein (Example 1) (human, UniProt Q9Y5U5 26-162, limits assumed); test: SPR (BIAcore), huGITR immobilized on CM5, antibody 6.25-100 nM
# T6 construct: also called Hu GITR recomb protein; immobilized huGITR
# T6 sequence: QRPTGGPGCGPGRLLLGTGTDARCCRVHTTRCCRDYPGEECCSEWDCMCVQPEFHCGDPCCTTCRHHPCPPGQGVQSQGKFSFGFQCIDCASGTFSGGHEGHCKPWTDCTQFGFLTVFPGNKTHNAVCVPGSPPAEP
# Description: Analysis of ligand (GITR-L) and monoclonal antibody binding to immobilized huGITR was performed by surface plasmon resonance and measured on BIAcore®. GITR (˜1100 RU) was immobilized onto a CM5 sensor chip using standard amine coupling. Analytes were injected over the immobilized GITR for 15 minutes at a flow rate of 5 μl/min followed by a 10 minute dissociation period. After kinetic runs had been performed the affinity and dissociation constants were simultaneously calculated by BiaEvaluation® software (Biacore Life Sciences). Binding of human GITR-L was analysed over a concentration range of 12.5-200 nM and murine anti-GITR monoclonal antibodies were analysed over a concentration of 6.25-100 nM. […] Affinity and dissociation constants for the antibodies are tabulated below in Table 9.
# [6] = target: T7, V1M/Q62P/S63G cynomolgus GITR on 1624-5 cells (cynomolgus monkey, UniProt Q9Y5U5 26-241 (human entry)); test: flow cytometry on 1624-5 cells, 2 µg/ml
# T7 construct: also called mutant cynomolgus GITR V1M/Q62P/S63G
# T7 chain: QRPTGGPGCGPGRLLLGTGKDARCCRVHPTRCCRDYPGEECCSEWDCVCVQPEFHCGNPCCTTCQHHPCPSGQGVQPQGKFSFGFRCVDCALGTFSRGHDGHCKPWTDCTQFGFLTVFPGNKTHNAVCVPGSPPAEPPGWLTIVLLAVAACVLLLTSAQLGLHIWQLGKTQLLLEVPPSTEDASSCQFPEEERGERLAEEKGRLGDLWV
# [7] = target: T8, V1M cynomolgus GITR on 1624-5 cells (cynomolgus monkey, UniProt Q9Y5U5 26-241 (human entry)); test: flow cytometry on 1624-5 cells
# T8 chain: T7 chain with P37Q, G38S
molecule,measurement,setting,value
"human GITR-L (Example 1, BIAcore analyte) (from UniProt Q9UNG2 49-177) (ligand)",Ka,[1],1.81e+08 M⁻¹
same,Kd,[1],5.54 nM
B1,percent reduction in binding relative to wild type human GITR,[2],10%
same,percent increase in binding relative to wild type human GITR,[3],62%
B2,Kd,[4],0.702 nM
same,koff,[4],0.00249 s⁻¹
same,kon,[4],3.55e+06 M⁻¹ s⁻¹
B3,Kd,biotinylated GITR,1.35 nM
same,koff,biotinylated GITR,0.00038 s⁻¹
same,kon,biotinylated GITR,283000 M⁻¹ s⁻¹
B4,binding result,recombinant mouse GITR,no binding
same,Ka,[5],4.2e+08 M⁻¹
same,Kd,[5],2.38 nM
B5,binding result,recombinant mouse GITR,no binding
same,Ka,[5],4.3e+08 M⁻¹
same,Kd,[5],2.33 nM
B6,binding result,recombinant mouse GITR,no binding
same,Ka,[5],4.19e+08 M⁻¹
same,Kd,[5],2.39 nM
B7,Kd,[4],2.02 nM
same,koff,[4],0.000712 s⁻¹
same,kon,[4],352000 M⁻¹ s⁻¹
same,binding result,[6],binds
same,binding result,[7],no binding (tested: 2 µg/ml)
same,percent reduction in binding relative to wild type human GITR,[2],82%
same,percent reduction in binding relative to wild type human GITR,[3],37%
B8,binding result,recombinant mouse GITR,no binding
same,Ka,[5],4.04e+08 M⁻¹
same,Kd,[5],2.47 nM
B9,Kd,biotinylated GITR,8.44 nM
same,koff,biotinylated GITR,0.00261 s⁻¹
same,kon,biotinylated GITR,309000 M⁻¹ s⁻¹
